# Results published in publication PMC8938923, “Essential Functional Interplay of the Catalytic Groups in Acid Phosphatase” (ACS Catalysis, 2022).
# Where a chain is given by its changes, count along the chain named. Numbers in names are those of the source.
# B1: ecAGP (α-D-glucose 1-phosphate phosphatase) (Escherichia coli K-12) (protein)
# chain: QTVPEGYQLQQVLMMSRHNLRAPLANNGSVLEQSTPNKWPEWDVPGGQLTTKGGVLEVYMGHYMREWLAEQGMVKSGECPPPYTVYAYANSLQRTVATAQFFITGAFPGCDIPVHHQEKMGTMDPTFNPVITDDSAAFSEQAVAAMEKELSKLQLTDSYQLLEKIVNYKDSPACKEKQQCSLVDGKNTFSAKYQQEPGVSGPLKVGNSLVDAFTLQYYEGFPMDQVAWGEIKSDQQWKVLSKLKNGYQDSLFTSPEVARNVAKPLVSYIDKALVTDRTSAPKITVLVGHDSNIASLLTALDFKPYQLHDQNERTPIGGKIVFQRWHDSKANRDLMKIEYVYQSAEQLRNADALTLQAPAQRVTLELSGCPIDADGFCPMDKFDSVLNEAVK
# notes: purified enzyme; homodimer; expression construct and tags only in supplement
# B2: ecAGP (α-D-glucose 1-phosphate phosphatase) (Escherichia coli K-12; H40D) (protein)
# chain: B1 chain with H18D
# notes: as for B1
# B3: ecAGP (α-D-glucose 1-phosphate phosphatase) (Escherichia coli K-12; D312A) (protein)
# chain: B1 chain with D290A
# notes: as for B1
# B4: YidA (alternative name: HAD13) (Escherichia coli K-12) (protein)
# chain: MAIKLIAIDMDGTLLLPDHTISPAVKNAIAAARARGVNVVLTTGRPYAGVHNYLKELHMEQPGDYCITYNGALVQKAADGSTVAQTALSYDDYRFLEKLSREVGSHFHALDRTTLYTANRDISYYTVHESFVATIPLVFCEAEKMDPNTQFLKVMMIDEPAILDQAIARIPQEVKEKYTVLKSAPYFLEILDKRVNKGTGVKSLADVLGIKPEEIMAIGDQENDIAMIEYAGVGVAMDNAIPSVKEVANFVTKSNLEDGVAFAIEKYVLN
# notes: construct only in supplement
# How the values were obtained:
# [1] = substrate: O=P(O)(O)O[C@H]1O[C@H](CO)[C@@H](O)[C@H](O)[C@H]1O; assay: phosphomonoester hydrolysis kinetics; format: biochemical, Escherichia coli
# [2] = substrate: O=P(O)(O)O[C@H]1O[C@H](CO)[C@@H](O)[C@H](O)[C@H]1O; assay: purified protein, by the assay type; parameters: Michaelis-Menten kinetics of substrate hydrolysis, initial rates of free phosphate release, pH 7.0, 37 °C
# Protocol: 8 S1.10 Structure determination and refinement The structure of H18D was determined by molecular replacement with PHASER9 using PDB ID: 1NT4 (H18A) as a search model. Model building was performed with COOT10 and refine-ment was carried out with phenix.refine. 11 The final structures were evaluated using MolPro-bity. 12 The number of Ramachandran outliers was below 0.2%. Figures of the structural models were prepared using PyMol 1.3. 13 S1.11 Phosphatase kinetics The rate constant kcat and the Michaelis constant KM were determined by measuring the initial rate of phosphate hydrolysis catalyzed by wild-type ecAGP (2 nM), H18D or H18D-2 (110 µM), D290A (2 nM - 5 µM, depending on the substrate used) or H18D/D290A (110 µM) in 50 mM HEPES buffer (pH 7.0). Reactions were incubated at 37°C on a Thermomixer comfort (Eppendorf, Hamburg, Germany) with agitation at 650 rpm. The reactions were started by ad-dition of enzyme. Glc1P, Glc6P, and the bis(cyclohexylammonium) salts of [compound left out], 2-nitrophenyl phosphate, 3-nitrophenyl phosphate, [compound left out] phosphate, 4-cyanophenyl S13 phosphate and 3-chlorophenyl phosphate were used as substrates in concentrations ranging from 0.01 mM to 10 mM. Incubation times were adjusted to ensure that the overall substrate hydrolysis was below 10 %. Samples withdrawn were quenched by heating (99°C, 5 min) and the free phosphate concentration was measured in supernatants of centrifuged (16000 × g, 15 min, 4°C) samples. All reactions were performed in triplicate. Kinetic parameters were obtained from non-linear least squares fits (SigmaPlot, Systat, Erkrath, Germany) of initial rates of phosphate release to the Michaelis–Menten equation. V is the initial rate, Vmax is the maximum initial rate, KM is the Michaelis constant and [S] is the initial substrate concentration (equation 1). The kcat was obtained from the relationship, kcat = Vmax/[E], where [E] is the molar concentration of active sites. [E] was obtained from the protein concentration using a molecular mass of the ecAGP subunit of 46674 Da. S10 (Merck Millipore) to a total protein concentration of 13 mg/mL in 10 mM NaAc (pH 4.5). Aliquots of 70 µL were stored at -70°C until use. Purity of the protein preparations was verified by SDS-PAGE. The ecAGP activity was assayed as described below in the section phosphatase kinetics. One unit of ecAGP activity is the amount of enzyme releasing 1 μmol of inorganic phosphate from Glc1P per minute under the conditions applied. S1.5 YidA The YidA from E. coli was used. A N-terminally His-tagged enzyme preparation was applied. […]
Protein,Km [2] [µM],kcat [2] [s⁻¹],other results
B1,90 ± 20,35 ± 1.7,"kcat ([1]; range printed jointly for wild-type and H18D, individual values in supplement): 35 ± 2 s^–1"
B2,–,–,"kcat ([1]; range printed jointly for wild-type and H18D, phospho-enzyme intermediate on Asp18): 2.0 × 10^–4 s^–1"
B3,–,–,Km ([1]; general acid-base removed): 1060 ± 120 µM; kcat ([1]; general acid-base removed): 0.014 ± 0.01 s⁻¹
B4,210 ± 30,20 ± 1.3,–
